This passage reports pyridoxine titer results from the supplement of paper PMC10471632, “Protein engineering and iterative multimodule optimization for vitamin B6 production in Escherichia coli” (Nature Communications, 2023).

± gives the standard deviation of the averaged measurements.

The labels stand for the following.
B1: library; numbered along this chain (parent)
chain: MAELLLGVNIDHIATLRNARGTAYPDPVQAAFIAEQAGADGITVHLREDRRHITDRDVRILRQTLDTRMNLEMAVTEEMLAIAVETKPHFCCLVPEKRQEVTTEGGLDVAGQRDKMRDACKRLADAGIQVSLFIDADEEQIKAAAEVGAPFIEIHTGCYADAKTDAEQAQELARIAKAATFAASLGLKVNAGHGLTYHNVKAIAAIPEMHELNIGHAIIGRAVMTGLKDAVAEMKRLMLEARG

The variants in the data set derive from B1. Kind of data set: pyridoxine titer in culture supernatant of strain expressing the PdxJ variant; higher = more PN produced (higher in vivo pathway activity of the PdxJ variant). To be noted: host strain: E. coli LL006; 48 h; temperature: 37 °C; FM1.4. The protocol: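 Rosetta-designed single to quadruple mutants of E. coli PdxJ (PNP synthase) were expressed from pRSFDuet-1 in the engineered chassis E. coli LL006 (MG1655 ΔpdxH::pdxST, pta::Eme_pdxP). Strains were grown in 24 deep-well plates in 2 mL FM1.4 glycerol medium at 37 °C and 800 rpm for 48 h. Extracellular pyridoxine (PN) titer was quantified by HPLC with fluorescence detection; two biological replicates, with the WT pdxJ strain (LL137, about 0.5 mg/L) as control.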
With V101L E104T L212I, the pyridoxine titer came to 0.49 ± 0.028 mg/L. Regarding I10L T22V A23T I218M, the pyridoxine titer worked out at 0.2811 ± 0.0013 mg/L.

E104T G194C I218L I219L: the pyridoxine titer stood at 4.45 ± 0.41 mg/L. Then G21M V44I T196C, with 1.94 ± 0.23 mg/L.

For the variant T22V, the pyridoxine titer worked out at 1.29 ± 0.091 mg/L.

G194C: the pyridoxine titer turned out to be 0.64 ± 0.33 mg/L.

For H155I, the pyridoxine titer is 3.05 ± 1.1 mg/L.

Regarding A23T I218L, the pyridoxine titer amounted to 1.04 ± 0.45 mg/L. On to D11C A23T I218L, for which the pyridoxine titer was determined as 0.39 ± 0.17 mg/L. Turning to E100I, the pyridoxine titer was determined as 0.906 ± 0.17 mg/L. For H155I N213I, the pyridoxine titer stood at 0.26 mg/L. As for I10L H12L T103L, the pyridoxine titer was 0.18 ± 0.028 mg/L. Consider I10L T22V E104T I219L, for which the pyridoxine titer was 2.93 ± 0.16 mg/L. Turning to V101L E104T A217V, the pyridoxine titer came to 1.17 ± 0.057 mg/L.

As to A19C A23T L212I, the pyridoxine titer worked out at 3.68 ± 0.73 mg/L. G7L H155I: the pyridoxine titer stood at 0.72 ± 0.071 mg/L. As to G7L, the pyridoxine titer is 0.9583 ± 0.0052 mg/L. The same measure for I10L A23W V101L E104T: 1.8 ± 0.37 mg/L. I10L T22V E104T: the pyridoxine titer came out at 0.875 ± 0.11 mg/L.

Turning to I10L V101L E104T G194Q, the pyridoxine titer worked out at 7.61 ± 0.4 mg/L. For the variant I10L V101L T103L E104T, the pyridoxine titer was determined as 1.611 ± 0.0023 mg/L.

Take V101L L212I: the pyridoxine titer was found to be 0.72 ± 0.042 mg/L. For T22V A23T, the pyridoxine titer amounted to 1.74 ± 0.23 mg/L. Take G7L N213I: the pyridoxine titer stood at 0.6 ± 0.11 mg/L. Turning to E100I T103L L212I, the pyridoxine titer was determined as 0.66 ± 0.47 mg/L. Consider I13V E104T T196C, for which the pyridoxine titer was determined as 9.62 ± 0.33 mg/L. As for V101L, the pyridoxine titer came to 1.19 ± 0.086 mg/L.

Regarding A217V, the pyridoxine titer was 3.92 ± 2 mg/L.

Turning to A19Q E104T, the pyridoxine titer stood at 0.72 ± 0.028 mg/L.

With A23T G194C T196F I219G, the pyridoxine titer worked out at 0.237 ± 0.011 mg/L. For I13V H155R L212I, the pyridoxine titer came to 0.22 ± 0.042 mg/L. With H12M A23T, the pyridoxine titer is 0.58 ± 0.014 mg/L. Consider I10L T22V E104T H155N, for which the pyridoxine titer was found to be 2.5 ± 0.35 mg/L. Then A23T V44I L212I, with 6.75 ± 0.099 mg/L; and A23T E104T I154L, with 2.31 ± 0.92 mg/L; and A23T I218L I219V, with 5.75 ± 0.16 mg/L.

As to H155I L212I, the pyridoxine titer is 0.36 mg/L. The same measure for I13V V44L E104T T196C: 0.824 ± 0.7 mg/L; for I13V G21M E104T T196C: 1.98 ± 0.077 mg/L; for A19Q G21M T103L: 0.49 ± 0.028 mg/L. Then I10L A23T E104T I219C, with 3.27 ± 0.22 mg/L.

Regarding I10L A19C V101L E104T, the pyridoxine titer was 0.41 ± 0.019 mg/L. For V101L T196C, the pyridoxine titer was 2.16 ± 0.085 mg/L. Then A23T V44I T196W L212I, with 2.89 ± 0.96 mg/L. Then I13V V44L E104T L212I, with 0.354 ± 0.0062 mg/L. With V44C G194C N213I I218L, the pyridoxine titer was found to be 2.07 ± 0.077 mg/L. For the variant H12M T196C, the pyridoxine titer worked out at 1.02 ± 0.014 mg/L. As to G194C N213I I218L, the pyridoxine titer turned out to be 9.12 ± 0.45 mg/L. The same measure for I10L T22V A23W E104T: 2.06 ± 0.39 mg/L; for E100I E104T: 0.98 ± 0.2 mg/L; for I10L E100I I218L: 0.24 ± 0.16 mg/L.

In the case of G7W I10L I218L, the pyridoxine titer is 0.2 ± 0.014 mg/L.

For I10L, the pyridoxine titer came to 2.82 ± 0.43 mg/L. Take I10L V101L: the pyridoxine titer came out at 1.46 ± 0.37 mg/L.

I154L: the pyridoxine titer stood at 1.72 ± 1.6 mg/L. As to I10L T22V A23T G194Q, the pyridoxine titer was 0.91 ± 0.11 mg/L.

Consider G21M G194C, for which the pyridoxine titer was 0.6 ± 0.014 mg/L. Take A23T E100I G194Q I219G: the pyridoxine titer is 2.67 ± 0.14 mg/L. As for V101L T196C L212I, the pyridoxine titer came out at 7.33 ± 0.48 mg/L. As to I10L A23T T103L, the pyridoxine titer is 0.24 mg/L.

Turning to I10L T22V E104T I218M, the pyridoxine titer amounted to 0.757 ± 0.11 mg/L. Take I219G: the pyridoxine titer worked out at 1.3 ± 0.31 mg/L. Then A23T H155I L212I, with 0.63 ± 0.014 mg/L; and E104T, with 0.334 ± 0.033 mg/L; and G21M, with 0.428 ± 0.049 mg/L.

Turning to I13V V101L E104T T196C, the pyridoxine titer turned out to be 1.04 ± 0.83 mg/L.

For the variant A23T V44I E104T L212I, the pyridoxine titer came to 4.95 ± 0.43 mg/L. The same measure for I10L G194C T196Y I218L: 0.378 ± 0.044 mg/L.

As for N213I, the pyridoxine titer came out at 1.76 ± 0.13 mg/L. In the case of G194C I218L, the pyridoxine titer was 1.33 ± 0.76 mg/L. For the variant A23T T103L L212I, the pyridoxine titer is 0.46 ± 0.014 mg/L. For the variant E100I L212I, the pyridoxine titer was found to be 0.67 ± 0.47 mg/L.

A23T E104T G194K L212I: the pyridoxine titer was determined as 0.349 ± 0.013 mg/L.

In the case of I10L T22V A23T I219C, the pyridoxine titer was 1.49 ± 0.02 mg/L. For the variant I10L G194C T196L I218L, the pyridoxine titer is 0.562 ± 0.075 mg/L.

As to I10L G194C I218L, the pyridoxine titer stood at 1.45 ± 0.3 mg/L. As for E100I V101L T196C A217M, the pyridoxine titer was 2 ± 0.12 mg/L. Regarding A23T G194C I219G, the pyridoxine titer came to 0.873 ± 0.37 mg/L. For the variant I13V E100I L212I, the pyridoxine titer was determined as 6.04 ± 1.9 mg/L. The same measure for Y24I I219G: 0.95 ± 0.23 mg/L. E104T G194C T196Y I218L: the pyridoxine titer came to 0.557 ± 0.059 mg/L. For the variant G7L E104T, the pyridoxine titer came to 0.65 ± 0.014 mg/L. As to I13V E104T G194Q T196C, the pyridoxine titer amounted to 0.3065 ± 0.0012 mg/L. Turning to A19Q, the pyridoxine titer is 1.02 ± 0.045 mg/L.

Regarding I10L E104T, the pyridoxine titer amounted to 1.1 ± 0.48 mg/L. Consider A23T E104T T196V L212I, for which the pyridoxine titer worked out at 2.61 ± 0.1 mg/L.

In the case of E104T L212I, the pyridoxine titer amounted to 2.65 ± 0.071 mg/L. I10L I13V H155I L212I: the pyridoxine titer worked out at 1.66 ± 0.076 mg/L. Consider L212I A217V, for which the pyridoxine titer was found to be 0.69 ± 0.042 mg/L. I13V L212I: the pyridoxine titer was 1.07 ± 0.3 mg/L. Consider I10L A23T E104T, for which the pyridoxine titer was 6.49 ± 0.071 mg/L. Then I13V, with 4.14 ± 0.062 mg/L.

As to A23T V44I T196R L212I, the pyridoxine titer was found to be 3.37 ± 1.5 mg/L. The same measure for E104T I218L: 0.75 ± 0.085 mg/L; for I10L I13V T196V L212I: 0.575 ± 0.077 mg/L; for T196C I218L: 0.22 ± 0.057 mg/L. As to A23T I154L, the pyridoxine titer was 1.23 ± 0.099 mg/L. Regarding I10L I13V L212I, the pyridoxine titer worked out at 3.48 ± 1.7 mg/L. With A23T Y24V, the pyridoxine titer turned out to be 0.39 ± 0.028 mg/L. Then A23T A217V, with 1.12 ± 0.18 mg/L; and A19R A23T E100I I219G, with 0.244 ± 0.041 mg/L. Then A23T E104T L212I, with 3.44 ± 1.2 mg/L; and G7I E104T G194C I218L, with 2.32 ± 0.19 mg/L. As to I10L T103L, the pyridoxine titer is 1.81 ± 0.042 mg/L.

On to I10L A23T, for which the pyridoxine titer is 1.39 ± 0.2 mg/L.
